Tests used:
[1] = biological target: human TNFα (recombinant, soluble) (human) (UniProt P01375); experiment: cell-based or functional assay
[2] = biological target: human OX40L (recombinant, soluble) (human) (UniProt P23510); experiment: cell-based or functional assay
Chain of UniProt P23510 (P23510 51-183 limits assumed): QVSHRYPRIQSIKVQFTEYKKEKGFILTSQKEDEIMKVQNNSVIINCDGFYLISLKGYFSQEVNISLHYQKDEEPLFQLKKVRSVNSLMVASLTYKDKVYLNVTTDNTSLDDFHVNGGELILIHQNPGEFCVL

Chain of UniProt P01375 (P01375 77-233 limits assumed): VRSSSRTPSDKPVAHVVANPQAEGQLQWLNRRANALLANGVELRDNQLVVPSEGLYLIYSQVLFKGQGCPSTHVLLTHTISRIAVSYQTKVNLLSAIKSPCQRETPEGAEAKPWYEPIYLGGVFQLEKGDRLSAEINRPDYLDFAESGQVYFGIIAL

For monospecific anti-TNFα VHH ATN-103, the % inhibition, Jurkat OX40/TNF-NFκB reporter assay, combined hTNFα+OX40L stimulus [1] was 66% and the IC50 (pM), Jurkat OX40/TNF-NFκB reporter assay, combined hTNFα+OX40L stimulus [1] was 387 pM.

Work on monospecific anti-OX40L VHH ALX-0632 yielded a % inhibition, Jurkat OX40/TNF-NFκB reporter assay, combined hTNFα+OX40L stimulus [2] of 68% and an IC50 (pM), Jurkat OX40/TNF-NFκB reporter assay, combined hTNFα+OX40L stimulus [2] of 3060 pM.

— US20210188986A1
